Measurements: paper PMC10607449, “Structural Characterization of an N-Acetyl Sugar Amidotransferase Involved in the Lipopolysaccharide Biosynthesis in Bacteria” (International Journal of Molecular Sciences, 2023)

Biological target: the molecule itself
Assay: SEC

B1: N-acetyl sugar amidotransferase from Legionella pneumophila (enzyme)
chain: MSNARIGIDMSKIYAPKSIDLSSFQLPDEKLQTKYGLPHKVEFCKSCVISNQRPNSAVEYEHKKESKKHTIHFDDEGICDACRVAERKKSTINWEERDRQLRELCDRFRSKDGSYDCVVPGSGGKDSFYAAHILKYKYGMNPLTVTWAPHMYTPWGWRNFQSWIHAGFDNHLFTPNGRVHRLLTRLAVENLFHPFQPFMIGQKAYAPKMALLHKIKLVVYGENEAEYGNPIGDTESAKRDWKYFTADDKSKIFLGGTSVQELKSDFGLNDNDLDAYLPADPQQIEEQQVEVHYLGYYLKWHPQSCYYYSVEHGGFEASPERTPGTYSKYNSIDDKIDDFHYYTTLTKFGIGRATYDASQEIRSGDITREEGVALVKRFDQEFPERFAEEIFKYLSINLKEFPIASQMFEQPIMDRAYFMALADTFRSPHLWKKDGEQWKLRHQVTNLEKTKAEYLDLETV
notes: also called LpNASAT; NASAT
Question: B1 was tested. Which “stoichiometry N” value did it give?
Answer: 2
